In patent US20220064334A1 (Janssen / Centocor, published 2022):

Columns and labels:
[1] = target: T1, KLK2 CAR KL2B413-LH expressed on SupT1 cells; experiment: flow cytometry on KL2B413-LH CAR SupT1 cells, directly PE-labelled antibody, PE median fluorescence
T1 construct: also called SupT1-KL2B413 LH; KL2B413-LH SupT1
Method: Multiple lots of PE-A002B39 were compared to assess differences in binding to KL2B413LH-SupT1 cells across batches. KL2B413-LH SupT1 cells (200,000 cells/well) were stained with LIVE/DEAD Fixable Near-IR viability dye and incubated with increasing concentrations of PE-A002B39 for 30 minutes on ice. After incubation, washing, and fixation, the samples were acquired on a 10 color FACSCanto II flow cytometer. Analysis was done using FlowJo analysis software and the PE median fluorescent intensity of live SupT1 cells is plotted in FIG. 7.

KL2B610 = target: T2, KL2B610; experiment: SPR, ProteOn XPR36; antibody captured on anti-mouse Fc, scFv-Fc fusion as analyte
T2 construct: KL2B413-derived scFv-Fc fusion protein with the variable regions in VH-VL orientation; also called KL2B413-HL-scFv; KLB610; not shown: Fc part of the scFv-Fc fusion and its junction to the scFv
Method: (§1) ProteOn XPR36 system (BioRad) was used to perform binding assays. ProteOn GLC chips (BioRad, Cat#176-5011) were coated with Anti-Mouse Fc antibody. Library Antibodies (Mouse IgG2a) were diluted to 0.25 ug/ml to 1 ug/ml to reach approximately 100-200RL. Antigens (scFv-Fc Fusions) were associated at 1000 nM to 0.4 nM, 1:4 dilutions for 3 minutes, followed by dissociation for 30 mins. The results of the assay (Table 1 below) show similar binding affinity of A002B39 with both KLB513 and KLB610.

KL2B513 [2] = target: T3, KL2B513; experiment: as above
T3 construct: KL2B413-derived scFv-Fc fusion protein with the variable regions in VL-VH orientation; also called KL2B413-LH-scFv; KL2B413-LH scFv-Fc fusion protein; not shown: Fc part of the scFv-Fc fusion and its junction to the scFv
Method: as §1

KL2B513 [3] = target: T3, KL2B513; experiment: SPR, Biacore; antibody captured on anti-mouse Fc, scFv-Fc fusion as analyte
Method: Anti-Mouse Fc antibody directly immobilized on M5 sensor chip. Library Antibodies (Mouse IgG2a) diluted to 1 ug/ml to reach approximately 20-50 RU. Antigens (scFV Fc Fusions) are associated at 500 nM to 0.8 nM, 1:5 dilutions for 3 minutes. Dissociation for 30 mins.

[4] = target: T1, KLK2 CAR KL2B413-LH expressed on SupT1 …; experiment: flow cytometry on KL2B413-LH SupT1 cells, PE goat anti-mouse IgG detection, PE median fluorescence
Method: SupT1 cells expressing KL2B413LH were compared to parental CAR-SupT1 cells. Cells (100,000 cells/well) were stained with LIVE/DEAD Fixable Near-IR viability dye (Life Technologies L10119) and then incubated with increasing concentrations of A002B39 for 30 minutes on ice. Following incubation, the samples were washed with BSA stain buffer (BD Biosciences #554657) and stained with PE-goat anti-mouse IgG polyclonal antibody (Biolegend #405307) to detect bound antibody on live CAR+SupT1 cells. After incubation, washing, and fixation (Cytofix, BD Biosciences), the samples were acquired on a 10 color FACSCanto II (BD Biosciences) flow cytometer. Analysis was done using FlowJo and the PE median fluorescent intensity of live SupT1 cells is plotted in FIG. 4. […] No binding was detected on CAR-SupT1 parental cells.

T2 sequence (scFv, as listed by the source limits assumed): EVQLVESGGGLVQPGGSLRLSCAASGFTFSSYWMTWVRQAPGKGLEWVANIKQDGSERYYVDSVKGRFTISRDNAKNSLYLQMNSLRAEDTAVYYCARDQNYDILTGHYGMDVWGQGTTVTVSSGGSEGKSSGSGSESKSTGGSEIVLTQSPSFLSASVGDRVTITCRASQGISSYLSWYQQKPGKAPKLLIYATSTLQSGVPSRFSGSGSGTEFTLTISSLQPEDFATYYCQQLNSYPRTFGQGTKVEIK
T3 sequence (scFv, as listed by the source limits assumed): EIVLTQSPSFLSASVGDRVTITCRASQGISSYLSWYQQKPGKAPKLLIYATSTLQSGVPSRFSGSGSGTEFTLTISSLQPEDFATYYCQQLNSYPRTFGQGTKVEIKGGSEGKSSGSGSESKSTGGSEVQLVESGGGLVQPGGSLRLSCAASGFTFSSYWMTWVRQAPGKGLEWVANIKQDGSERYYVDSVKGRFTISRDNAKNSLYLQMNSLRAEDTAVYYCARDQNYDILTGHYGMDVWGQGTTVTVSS
T1 sequence (chain, as listed by the source limits assumed): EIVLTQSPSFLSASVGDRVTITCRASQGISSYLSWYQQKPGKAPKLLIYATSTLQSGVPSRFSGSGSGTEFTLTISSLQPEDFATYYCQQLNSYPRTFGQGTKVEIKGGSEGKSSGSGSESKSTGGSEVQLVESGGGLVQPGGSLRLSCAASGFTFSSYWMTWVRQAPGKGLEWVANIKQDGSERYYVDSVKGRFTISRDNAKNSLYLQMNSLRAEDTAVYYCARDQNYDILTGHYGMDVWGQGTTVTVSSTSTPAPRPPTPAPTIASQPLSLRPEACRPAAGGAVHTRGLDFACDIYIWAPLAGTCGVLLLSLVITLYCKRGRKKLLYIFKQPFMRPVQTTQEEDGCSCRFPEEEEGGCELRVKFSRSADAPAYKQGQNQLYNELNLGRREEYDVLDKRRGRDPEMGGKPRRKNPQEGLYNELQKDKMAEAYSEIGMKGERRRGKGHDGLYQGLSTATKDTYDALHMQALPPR

EC50 [1] [µg/mL] | Kd (KL2B610) [nM] | koff (KL2B610) [s⁻¹] | kon (KL2B610) [M⁻¹ s⁻¹] | Kd (KL2B513 [2]) [nM] | koff (KL2B513 [2]) [s⁻¹] | kon (KL2B513 [2]) [M⁻¹ s⁻¹] | Kd (KL2B513 [3]) [nM] | koff (KL2B513 [3]) [s⁻¹] | kon (KL2B513 [3]) [M⁻¹ s⁻¹] | EC50 [4] [µg/mL] | Binder
1.6 | – | – | – | – | – | – | – | – | – | – | PE-A002B39 (antibody, mouse IgG2a, kappa, V domains shown, R-phycoerythrin conjugate, 1:1 PE:antibody; attachment site and chain not stated, also called A002B39 conjugated to R-PE) VH: EVQLVQSGAEVKKPGSSVKVSCKASGGTFSSYAISWVRQAPGQGLEWMGGIIPIFGTANYAQKFQGRVTITADESTSTAYMELSSLRSEDTAVYYCARVQWGLDYWGQGTLVTVSS VL: EIVLTQSPATLSLSPGERATLSCRASQSVDSALAWYQQKPGQAPRLLIYGASNRATGIPARFSGSGSGTDFTLTISSLEPEDFAVYYCQQRFNWPITFGQGTKVEIKR
– | 1.11 | 0.000315 | 285000 | 0.99 | 0.000333 | 339000 | 3.49 | 0.000202 | 57900 | 0.4 | A002B39 (antibody, mouse IgG2a, kappa, V domains shown, expressed in HEK293 Expi or CHO; also called A002M39) VH: EVQLVQSGAEVKKPGSSVKVSCKASGGTFSSYAISWVRQAPGQGLEWMGGIIPIFGTANYAQKFQGRVTITADESTSTAYMELSSLRSEDTAVYYCARVQWGLDYWGQGTLVTVSS VL: EIVLTQSPATLSLSPGERATLSCRASQSVDSALAWYQQKPGQAPRLLIYGASNRATGIPARFSGSGSGTDFTLTISSLEPEDFAVYYCQQRFNWPITFGQGTKVEIKR
